Patent publication US20100136580A1 (Genentech, published 2010)

T1: GST-Dvl2PDZ fusion protein (human, UniProt O14641 248-364)
T1 construct: range 248-364; Made with the pGEX E. coli expression system; also called GST-PDZ fusion protein; not shown: glutathione S-transferase (GST) encoded by plasmid pGEX
T1 sequence (looked up): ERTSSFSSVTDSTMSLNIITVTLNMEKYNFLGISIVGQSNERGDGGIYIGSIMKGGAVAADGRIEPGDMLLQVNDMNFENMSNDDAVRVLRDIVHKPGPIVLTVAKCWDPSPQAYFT

B1: SEQ ID NO 128 (peptide)
peptide: EVLWSDFPPM
B2: SEQ ID NO 107 (peptide)
peptide: VSLINYGWIDGGG
B3: SEQ ID NO 117 (peptide)
peptide: SWETLWSDFP
B4: SEQ ID NO 92 (peptide)
peptide: LKFYGWIDGGG
B5: SEQ ID NO 86 (peptide)
peptide: YTKYYGWIDTGG
B6: SEQ ID NO 90 (peptide)
peptide: TDYGWIDYPP
B7: SEQ ID NO 131 (peptide)
peptide: LQLLWSDIPG
B8: SEQ ID NO 134 (peptide)
peptide: ELWIDGPHVM
B9: SEQ ID NO 111 (peptide)
peptide: IKLVQYGWIDGGG
B10: SEQ ID NO 115 (peptide)
peptide: LTMYGWIDGKG
B11: SEQ ID NO 105 (peptide)
peptide: WWVDYGFVDGGG
B12: SEQ ID NO 106 (peptide)
peptide: LKFYGWIDGGG
B13: SEQ ID NO 81 (peptide)
peptide: QSHTCYGWIDGGG
B14: SEQ ID NO 84 (peptide)
peptide: FTWRDYGWLDGGG
B15: SEQ ID NO 99 (peptide)
peptide: SIIYYGWLDGGG
B16: SEQ ID NO 135 (peptide)
peptide: SIVLWSDIPS
B17: SEQ ID NO 120 (peptide)
peptide: QQLLWSDIP
B18: SEQ ID NO 109 (peptide)
peptide: GFLTHYGWLDGGG
B19: SEQ ID NO 133 (peptide)
peptide: WTNVLWTDIP
B20: SEQ ID NO 94 (peptide)
peptide: VSLINYGWIDGGG
B21: SEQ ID NO 121 (peptide)
peptide: SIVLWSDIPS
B22: SEQ ID NO 123 (peptide)
peptide: SIVLWTDIPS
B23: SEQ ID NO 87 (peptide)
peptide: TWMDYGWLDQGG
B24: SEQ ID NO 143 (peptide)
peptide: GLVLLWTDIP
B25: SEQ ID NO 125 (peptide)
peptide: TNLLWSDIPP
B26: SEQ ID NO 138 (peptide)
peptide: EMITLWSDLP
B27: SEQ ID NO 93 (peptide)
peptide: SLQWYGWIDSGG
B28: SEQ ID NO 137 (peptide)
peptide: WVMLWSDLPA
B29: SEQ ID NO 118 (peptide)
peptide: NEQLLWTDIP
B30: SEQ ID NO 145 (peptide)
peptide: NLERWSDIPM
B31: SEQ ID NO 116 (peptide)
peptide: VNLVEYGWVDGGG
B32: SEQ ID NO 119 (peptide)
peptide: EVLWSDFPPM
B33: SEQ ID NO 122 (peptide)
peptide: EVLWADFPPM
B34: SEQ ID NO 141 (peptide)
peptide: EVLWSDFPPM
B35: SEQ ID NO 104 (peptide)
peptide: YTKYYGWIDTGG
B36: SEQ ID NO 124 (peptide)
peptide: SMVLWWDVPS
B37: SEQ ID NO 147 (peptide)
peptide: TWIDGPYLLQ
B38: SEQ ID NO 140 (peptide)
peptide: SIVLWSDIPS
B39: SEQ ID NO 146 (peptide)
peptide: SLLTIWSDIP
B40: SEQ ID NO 100 (peptide)
peptide: AHTTFYGWIDGGG
B41: SEQ ID NO 110 (peptide)
peptide: AMFHEYGWIDGGG
B42: SEQ ID NO 96 (peptide)
peptide: SHWKYYGWIDGGG
B43: SEQ ID NO 108 (peptide)
peptide: IKLVQYGWIDGGG
B44: SEQ ID NO 112 (peptide)
peptide: MVDYGWIDYWG
B45: SEQ ID NO 91 (peptide)
peptide: TRFTNYGWLDGGG
B46: SEQ ID NO 129 (peptide)
peptide: EMITLWSDLP
B47: SEQ ID NO 113 (peptide)
peptide: VKYYGYIDGGG
B48: SEQ ID NO 148 (peptide)
peptide: VWGDSFEGRP
B49: SEQ ID NO 98 (peptide)
peptide: MWYVDYGWVDGGG
B50: SEQ ID NO 97 (peptide)
peptide: ITDYGWVDGPG
B51: SEQ ID NO 83 (peptide)
peptide: WVEYGWIDSGG
B52: SEQ ID NO 89 (peptide)
peptide: AWIVDYGWIDGGG
B53: SEQ ID NO 101 (peptide)
peptide: SHWKYYGWIDGGG
B54: SEQ ID NO 82 (peptide)
peptide: VKYYGYIDGGG
B55: SEQ ID NO 103 (peptide)
peptide: YTDYGWIDQSG
B56: SEQ ID NO 95 (peptide)
peptide: WISGWIDYPP
B57: SEQ ID NO 114 (peptide)
peptide: HITVDYGWIDGGG
B58: SEQ ID NO 132 (peptide)
peptide: EMDLLWTDIP
B59: SEQ ID NO 139 (peptide)
peptide: WVMLWSDLPA
B60: SEQ ID NO 142 (peptide)
peptide: RRMLWSDIPG
B61: SEQ ID NO 88 (peptide)
peptide: GGRMALGWLDGGG
B62: SEQ ID NO 130 (peptide)
peptide: GLVLLWDDFP
B63: SEQ ID NO 149 (peptide)
peptide: PEVWIDGPEI
B64: SEQ ID NO 144 (peptide)
peptide: EMDLLWTDIP
B65: SEQ ID NO 102 (peptide)
peptide: AWIVDYGWIDGGG
B66: SEQ ID NO 85 (peptide)
peptide: TLLHFYGYIDGGG
B67: SEQ ID NO 127 (peptide)
peptide: SIVLWSDIPS
B68: SEQ ID NO 136 (peptide)
peptide: QLVELWSDIP

molecular target: T1, GST-Dvl2PDZ fusion protein; test: phage display selection on GST-Dvl2PDZ
Method: The libraries were cycled through rounds of binding selection with a GST-Dvl2PDZ fusion protein coated on 96-well Maxisorp immunoplates as the capture target. Phage were propagated in E. coli XL1-blue with M13-KO7 helper phage and 10 μM IPTG. After four rounds of binding selection, individual phage clones were analyzed in a high-throughput phage ELISA, and positive clones were subjected to DNA sequence analysis.
We used decapeptide libraries fused to the C-terminus or N-terminus of the phage coat protein. The library contained NNK degenerate codons that encoded all 20 natural amino acids. The possible occurrence of amber stop codons in the degenerate codon also provided for the display of shorter peptides for the C-terminal library. Each library was cycled through four rounds of binding selection with immobilized GST-Dvl2PDZ fusion protein as the capture target.

Binding result, binds:
B1
B2
B3
B4
B5
B6
B7
B8
B9
B10
B11
B12
B13
B14
B15
B16
B17
B18
B19
B20
B21
B22
B23
B24
B25
B26
B27
B28
B29
B30
B31
B32
B33
B34
B35
B36
B37
B38
B39
B40
B41
B42
B43
B44
B45
B46
B47
B48
B49
B50
B51
B52
B53
B54
B55
B56
B57
B58
B59
B60
B61
B62
B63
B64
B65
B66
B67
B68
